# Experimental data reported in paper PMC3618430 (PLoS ONE, 2013).
# Columns and labels:
# Assay in all cases: ELISA
# Conditions in all cases: one partner purified
# [1] = target: T1, recombinant A/California/04/2009 H1N1 HA (Influenza A virus A/California/04/2009 …, UniProt C3W5S1, strain)
# T1 construct: source: bought: Sino Biological Inc
# bovine serum albumin = target: T2, bovine serum albumin (Bos taurus, UniProt P02769)
# T2 construct: also called BSA
# [2] = target: recombinant A/Anhui/1/05 (H5N1) HA (Influenza A virus A/Anhui/1/2005 (H5N1), UniProt Q1WDM0, strain)
# [3] = target: recombinant A/Turkey/1/2005 (H5N1) HA (Influenza A virus …, UniProt Q207Z6, strain)
# [4] = target: recombinant A/Netherlands/219/03 (H7N7) HA (Influenza A virus …, UniProt Q6VMK1, strain)
# T2 sequence (P02769 25-607): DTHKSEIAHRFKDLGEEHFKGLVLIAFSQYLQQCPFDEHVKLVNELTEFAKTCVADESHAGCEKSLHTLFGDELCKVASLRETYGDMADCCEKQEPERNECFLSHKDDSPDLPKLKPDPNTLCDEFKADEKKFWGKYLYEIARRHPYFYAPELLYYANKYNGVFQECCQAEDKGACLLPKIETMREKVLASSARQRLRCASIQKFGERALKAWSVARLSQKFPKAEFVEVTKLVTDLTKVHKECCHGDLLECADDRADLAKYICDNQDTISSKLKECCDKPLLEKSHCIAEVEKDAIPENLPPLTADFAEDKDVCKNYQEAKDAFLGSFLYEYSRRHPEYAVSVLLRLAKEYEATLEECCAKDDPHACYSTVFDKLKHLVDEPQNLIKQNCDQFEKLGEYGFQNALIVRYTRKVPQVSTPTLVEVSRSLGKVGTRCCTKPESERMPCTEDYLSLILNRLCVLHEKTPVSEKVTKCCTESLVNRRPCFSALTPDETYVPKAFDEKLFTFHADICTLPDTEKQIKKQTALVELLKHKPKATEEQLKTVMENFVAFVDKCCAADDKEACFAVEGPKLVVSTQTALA
Binder,binding result [1],binding result (bovine serum albumin),binding result [2],binding result [3],binding result [4]
"A3 Fab displayed on phage (Fab, V domains shown, also called clone A3; Fab-phage A3; source: E. coli TG-1 with helper phage KM13, phage PEG-precipitated) VH: QVTLKESGPGILKPSQTLSLTCSFSGFSLSTSGMGVGWIRQSSGKGLEWLANIWWDDDKYYNPSLKSQLTISKDTSRNQVFLKITSVDTADTATYYCARRGEYDAMDYWGQGTSVTVSS VL: not shown",no binding,no binding,binds,binds,no binding
"D8 Fab displayed on phage (Fab, V domains shown, also called clone D8; Fab-phage D8; source: E. coli TG-1 with helper phage KM13, phage PEG-precipitated) VH: QVTLKESGPGILKPSQTLSLTCSFSGFSLSTPGMGVGWIRQPSGKGLEWLANIWWDDDKYYNPSLKSQLTISKDTSRNQVFLKITSVDTTDTATYYCARRGNYDAMDYWGQGTSVTVSS VL: DIVLTQSPASLAMSLGQRATISCKASQSVVYDGDSYMNWYQQKPGQPPKLLIYAASNLESGIPARFSGSGSGTDFTLNIHPVEEEDAATYYCQQSSEDPWTFGGGTKLEIK",no binding,no binding,binds,binds,no binding
"A4 Fab displayed on phage (Fab, V domains shown, also called clone A4; Fab-phage A4; source: E. coli TG-1 with helper phage KM13, phage PEG-precipitated) VH: QVTLKESGPGILKPSQTLSLTCSFSGFSLSTSGMGVGWIRQPSGKGLEWLANIWWDDDKYYNPSLKSQLTISKDTSRNQVFLKITSVDTADTATYYCARRGKYDSMDYWGQGTSVTVSS VL: DIVLTQSPASLAMSLGQRATISCKASQSVVYDGDSYMNWYQQKPGQPPKLLIYAASNLESGIPARFSGSGSGTDFTLNIHPVEEEDAATYYCQQSSEDPWTFGGGTKLEIK",no binding,no binding,binds,binds,no binding
"D4 Fab displayed on phage (Fab, V domains shown, also called clone D4; Fab-phage D4; source: E. coli TG-1 with helper phage KM13, phage PEG-precipitated) VH: QVTLKESGPGILKPSQTLSLTCSFSGFSLNTSGMGVGWIRQPSGKGLEWLANIWWDDDKYYNPSLKSHLTISKDTSGNQVFLKITSVDTADSATYYCARRGDYDSLDYWGQGTSVTVSS VL: DIVLTQSPGSLSVSLGQRATISCKASQSVDYDGDSYMNWYQQKPGQPPKLLIYAASNLESGIPARFSGSGSGTDFTLNIHPVEEEDAATYYCQQSSEDPWTFGGGTKLEIK",no binding,no binding,binds,binds,no binding
